Data taken from the DeepSol protein solubility set.

experiment: soluble on expression in E. coli; label from the status in PepcDB or PDB records

Sequence | soluble on expression in E. coli
MVPKTATSTETKTITRIIHYVDKVTNQNVKEDVVQPVTLSRTKTENKVTGVVTYGEWTTGNWDEVISGKIDKYKDPDIPTVESQEVTSDSSDKEITVRYDRLSTPEKPIPQPNPEHPSVPTPNPELPNQETPTPDKPTPEPGTPKTETPVNPDPEVPTYETGKREELPNTGTEANATLASAGIMTLLAGLGLGFFKKKEDEKLEHHHHHH | soluble
MVPNDVFQKLLYDLFCMWHGVQRHYDPPIPDSEEQRMQKVKNLICKLLTEIDGRVNRIKQNNNHQRGQDFYEEWTMLTWNVLCITNRLQNSLSQVVVSNEDKMIYSRLNQALVELVNYSRDFLPFPSTNEMDPEYVMLRDKMNQTMMSLHGLYRQMNSAMYQTPDDVENFRIHLQTFGDDILVPCLEQYKTFCNKNCMALWQQVRLVQVERMRDQVKDQGCSIENLVSFYSNMTYVLAVLGARLQGFRYDLTVNKKFFNFDPVVHMSEAVFAALELLMSNCVLATEPSTSAILVTNNLFAMNCGALARGVVFKDFEIQVVSEETAEHIQSEMSRQRLLQHPAPIGNVPSAALLAMKPTTGTKRSNAASNSDSANNTAHKKSDVNSKESVIIYPVYNSKNRYWAATYPHLLCTTRQKGRQSIHSSYQDLSPSGTNSSASNDKNGSGKRPIFYFHIKATMFSPSGRFATAHTLSLPFTIATRRNQDCQVQRMMSSYTATIFWLYGCNTQDGLLLQWIDGGMHWDHFKHLFKQHFKLLKYKLQCPDCCSGQDGARVNGVQQIVTFKNVLCPHLRYECNSTNVRFSVWRGMLELLQIFHDTRNNVRKLWEMGFLMGFMEFEEVDNMLEKHKSALIMRLSFVTGGTICFTVKSLAHTLDPRSSRPIHLEPLDLKRLQQKCLKDYLRDIADAEKVKYILTANEEVINIESLLESLKELGVKPENPSESREISSNITHMGDIDTMQHIKFTAMRIAVVTCKVKPPSADQEENDANGLNRLQATLGTRDDDFLRDFVQLANAYGKSKQDLYEALDFINDQYQPGPIRKTSSIYDSSHHIPLAPAPIARNMGPTMISPPPAKVRPPAVDTYPRSSQFELVRSDSDHLPPSNTMMRVSCSPPKPPSQLPSPNQTTIPHMYNNGIPMIYEHHQQQRFDY | not soluble
MVPTPKPVVDRMLELADVDETDVLYDLGSGDGRIVIRAARTHGARGVGIEIDPDLVKKARKNAKEAGVADLVEFRQGDLFEADISEATVVTLYLLPSVNQKLRPILFEQLSPGTPVVSHDFDMGRWAPDRTVDLEGDTVYRWTIPLEHHHHHH | not soluble
MVQEIIVDSGDIEFLTTPKEYKQQLLSLIECARQRIFITALYLQDDEAGREILHALYQAKANFPTIEINIFVDFNRGQRGLIGEKASLGNRALYLKLAHEYPHTVNIYGVAVKRKEVFGVLHLKGMVFDEKLFYTGASINDIYLHQGERLEHHHHHH | not soluble
MVQHLTAEEIIQYISDAKKSTPIKVYLNGNFEGITYPESFKVFGSEQSKVIFCEADDWKPFYEAYGSQFEDIEIEMDRRNSAIPLKDLTNTNARIEPGAFIREQAIIEDGAVVMMGATINIGAVVGEGTMIDMNATLGGRATTGKNVHVGAGAVLAGVIEPPSASPVIIEDDVLIGANAVILEGVRVGKGAIVAAGAIVTQDVPAGAVVAGTPAKVIKQASEVQDTKKEIVAALRKLND | not soluble
MVQLNGKVAIVTGGAKGIGKAITVALAQEGAKVVINYNSSKEAAENLVNELGKEGHDVYAVQADVSKVEDANRLVEEAVNHFGKVDILVNNAGITRDRTFKKLNREDWERVIDVNLSSVFNTTSAVLPYITEAEEGRIISISSIIGQAGGFGQTNYSAAKAGMLGFTKSLALELAKTNVTVNAICPGFIDTEMVAEVPEEVRQKIVAKIPKKRFGQADEIAKGVVYLCRDGAYITGQQLNINGGLYM | not soluble
MVQSSSVLREPSMDEILTSIREIIEENAVHPDYFSNEGAAGNSSRENLEIPSEGVYDTSLSVDDAMKALADRIGLSSENHDFSLTKDKESIEAENNTVGVDMQKMKRSSEEQSSVHRTQEHNKPFSQSENVIAGHVELSAYCISSAEKIAKDVLRPAIAEWLQHKLPVLLEDILREEIVRAIKKSS | not soluble
MVRIDAKGLHYKKLNDLIWEAVENGEEEIVLDNVCGQRYIGAGIRKKVKIEINGVPGNDLGVFMDGPEIIVNGNAQDGVGNTMNAGKIVVHGHAGDIIGYAMRGGHIYIKRNAGYRVGIHMKAYKENYPVVVIGGFARDFLGEYMAGGLLIVLGLEKDEDGNIAGNYVGTGMHGGEIFLRGTVEEHKLGKEVKIFQPTEEDINRIKPYVEEFCRLFDYDSEEILNEEFIILKPYTHRPYGRLYAY | not soluble
MVRMALEGMSKRKRKRSVQEGENPDDGVRGSPPEDYRLGQVASSLFRGEHHSRGGTGRLASLFSSLEPQIQPVYVPVPKQTIKKTKRNEEEESTSQIERPLSQEPAKKVKAKKKHTNAEKKLADRESALASADLEEEIHQKQGQKRKNSQPGVKVADRKILDDTEDTVVSQRKKIQINQEEERLKNERTVFVGNLPVTCNKKKLKSFFKEYGQIESVRFRSLVCFIPPLEHHHHHH | not soluble
MVRQPAVAGQFYTDDPRRLREELGHLIRPVPAPRRVTGVIAPHAGYMYSGAIAGAVYGSIVIPRTVVILGPNHHGLGAAASLYPDGTWLSPLGEVPIEQRLSSLVLEHVPQAEPDVIAHRFEHSLEVQVPFLRYLNSDVAIVPMCLGGGGYGWCRQVGEGLARAIAAYGEEVLIVASSDMTHYESAESARLKDEAALSCVLALDAEGLLKVCRQRGITMCGVIPSTVMLVAARELGASRAELIRYGTSGDVTGDNRQVVAYAAVAVYLEHHHHHH | not soluble
MVRTVKSYNGEADDLAGQIHTLPAVWVTYGGSKVEPASTGGVCGRYQDTAEFVVMVAARNLRNEQAQRQGGIDSREIGSNDLIRAVRRLLDGQRLGFADSRGLVPKAVRAIANHVLVQNAAVSIYAVEYAIRFNTCGLENDRYPERTDNPDDPNHIFTKYQGTLSEPWPDFEGLDGKIYDPQSADEIPVNLTLKDKQ | not soluble
MVSATYSVVYETGKKLNSGFDNWGWDSKMSFKDNSLVLTADPDEYGAISLKNLNSNYYGKGGCIYLQVKTETEGLVKVQGVRGYDETEAFNVGSFRSSSDFTEYKFEVDDEYQFDRIIVQDGPASNIPIYMRYIIYSTGSCDDHILEHHHHHH | soluble
MVSIIIPIYNVQDYINDCLYSVYTQTYSEIEVILVNDCTPDNSMLIAHSNIEKLKKRFNVKIIDHKSNKGLSAARNSGVKEATGEWVYFLDSDDEITPDCIECFVRLAERYLSVDFIVGGIRVIGRNISYRLTTSEYVIGNDNILKCYISGMWYEMAWNKLIRKEYFVSNNLWFKEGLLHEDQLFSYQLATTALTMATVNKPTYIYKMRMSGAITSSNGRKNFDSFICILEYMVYSVMQKYSTSSVTLEYAQIIRFSYSILLSLYGKHNLTEMEVVNYELKVDRICRIVTFYKCKLPVPIQIKLTIIKLPQTMRKVLLKWHNKKIQKKLEHHHHHH | soluble
MVSIMNKNELITEILKNEVVKALGCTEVGLIGYTVAKAKPEDLYSIKEIKLILDKGTFKNAFSVGVPNTNKFGILPAVVGGLLGREENKLEVFKDIKYDEKLEEFIENKLKIEVIDSDVYCKVIIKANKVYEAETKGSHSGKSLSDDLKNAYKSLTLKDFIDYIEDIPEEVIKIIKETIETNKNLSTPEVPEDFISLDLKDEILNHMLKKTVSAVYNRMIGINKPAMAIAGSGNMGLTATLPIIAYDEIKGHDEEKLTKSITLSALTTIYSAYHSSYISAMCGCVNRGGIGAVSGLSYYIFGFDRIEESIKSFTANLPGIVCDGGKIGCALKIASGVFAIYLSLFSKVPYTNGIVGKDFKECIENIGKIGKAMKPVDDEIIEILKNKK | soluble
MVSRRVQALLDQLRAQGIQDEQVLNALAAVPREKFVDEAFEQKAWDNIALPIGQGQTISQPYMVARMTELLELTPQSRVLEIGTGSGYQTAILAHLVQHVCSVERIKGLQWQARRRLKNLDLHNVSTRHGDGWQGWQARAPFDAIIVTAAPPEIPTALMTQLDEGGILVLPVGEEHQYLKRVRRRGGEFIIDTVEAVRFVPLVKGELA | soluble
MVSSQKLEKPIEMGSSEPLPIADGDRRRKKKRRGRATDSLPGKFEDMYKLTSELLGEGAYAKVQGAVSLQNGKEYAVKIIEKQAGHSRSRVFREVETLYQCQGNKNILELIEFFEDDTRFYLVFEKLQGGSILAHIQKQKHFNEREASRVVRDVAAALDFLHTKDKVSLCHLGWSAMAPSGLTAAPTSLGSSDPPTSASQVAGTTGIAHRDLKPENILCESPEKVSPVKICDFDLGSGMKLNNSCTPITTPELTTPCGSAEYMAPEVVEVFTDQATFYDKRCDLWSLGVVLYIMLSGYPPFVGHCGADCGWDRGEVCRVCQNKLFESIQEGKYEFPDKDWAHISSEAKDLISKLLVRDAKQRLSAAQVLQHPWVQGQAPEKGLPTPQVLQRNSSTMDLTLFAAEAIALNRQLSQHEENELAEEPEALADGLCSMKLSPPCKSRLARRRALAQAGRGEDRSPPTAL | soluble
MVTSTRARFGQFVHRRRRLLNLTQDEVTAAGGPSDAAQTRAENGTGPDPSIETLRKLDVALRWAPGSAARTLDGGHPTPLEALDGEDRSPAARPLTLGPSEIPLDLDTIIEILGPHTQITKLSAAHPEVPGLAEAAGELSRVVSKITGAYVTRLLEVNGGPTGPRQPLVEFAFGHLLEEPTTVTDPRELEEARYRRFLYGRGEDLDAATRERFWRRWEDAVKLVATEDPERSGDAEVNA | not soluble
MVTVPDAIKGSSPTPQQDLVRVMSAPQLYVGQEARFGGKVVAVQNQQGKTRLEIATVPLDSGARPTLGEPSRGRIYADVNGFLDPVDFRGQLVTVVGPITGAVDGKIGNTPYKFMVMQVTGYKRWHLTQQVIMPPQPIDPWFYGGRGWPYGYGGWGWYNPGPARVQTVVTELEHHHHHH | soluble
MVVEENCSMHHLERELDLELEIDMAMECAPIGRTIKSALLRAQSEARVIVGLSAAINVLSKSPEGSLFCLMAQPKDGDSATHMHEVLLEAFCYENDIYVIKVDDATKLSRILGQDSVESCCLVQKVWADAPEEQLTKAENQLVDYCEAHWDAPQQPIVQLPAV | not soluble
MVVFNGLLKIKICEAVSLKPTAWSLRDAVGPRPQTFLLDPYIALNVDDSRIGQTATKQKTNSPAWHDEFVTDVCNGRKIELAVFHDAPIGYDDFVANCTIQFEELLQNGSRHFEDWIDLEPEGKVYVIIDLSGSSG | soluble
MVVNTHRVPSVDVLLDVITERIGLINGAKKLYTTSGTLVKDINKIKDGQNYVASSSHFTPAAYGGQHQPIQKEVKLKKKKKKRSQTVQPRKTEHIELGDEISIPLNEPVVLEKKKKKKKKLVQKNLDLHGSIETLAETAEIELPSEIEDSEEEDEHEHRRSATPDHHRPATKHSVAPSRASSRRGSRRDEEKREEEDEERKKKDEKKRKSVSSSRRKSQAQHHGQPNWGDLSSFTKNIESLLKN | not soluble
MVYVSNKYLTMSEMKVNAQYILNYLSSNGWTKQAICGMLGNMQSESTINPGLWQNLDEGNTSLGFGLVQWTPASNYINWANSQGLPYKNMDSELKRIIWEVNNNAQWINLRDMTFKEYIKSTKTPRELAMIFLASYERPANPNQPERGDQAEYWYKNLSGGGGGGLQLAQFPMDIINISQGENGSFSHKGTLCIDFVGKTEKYPYYAPCDCTCVWRGDASAYLAWTSDKEVMCADGSVRYITWVNVHESPLPFDVGKKLKKGDLMGHTGIGGNVTGDHWHFNVIDGKEYQGWTKKPDSCLAGTELHIYDVFAVNNVEIINGNGYDWKTSDWQDG | soluble
